Data published in patent publication US20230235004A1 (published 2023).

T1: human MAdCAM expressed on cells (human, UniProt Q13477 19-382)
T1 construct: whole, on cells
T1 sequence (looked up): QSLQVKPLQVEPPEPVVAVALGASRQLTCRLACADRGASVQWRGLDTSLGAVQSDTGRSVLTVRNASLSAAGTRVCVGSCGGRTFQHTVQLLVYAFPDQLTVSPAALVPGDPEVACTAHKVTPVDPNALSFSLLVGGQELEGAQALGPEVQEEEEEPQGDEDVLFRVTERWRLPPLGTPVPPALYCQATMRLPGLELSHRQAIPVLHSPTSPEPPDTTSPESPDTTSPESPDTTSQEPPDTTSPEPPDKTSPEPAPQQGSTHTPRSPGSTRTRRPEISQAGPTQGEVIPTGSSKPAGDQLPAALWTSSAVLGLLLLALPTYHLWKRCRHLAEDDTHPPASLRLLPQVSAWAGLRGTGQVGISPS

T2: mouse MAdCAM expressed on cells (mouse, UniProt Q61826 22-405)
T2 construct: whole, on cells
T2 sequence (looked up): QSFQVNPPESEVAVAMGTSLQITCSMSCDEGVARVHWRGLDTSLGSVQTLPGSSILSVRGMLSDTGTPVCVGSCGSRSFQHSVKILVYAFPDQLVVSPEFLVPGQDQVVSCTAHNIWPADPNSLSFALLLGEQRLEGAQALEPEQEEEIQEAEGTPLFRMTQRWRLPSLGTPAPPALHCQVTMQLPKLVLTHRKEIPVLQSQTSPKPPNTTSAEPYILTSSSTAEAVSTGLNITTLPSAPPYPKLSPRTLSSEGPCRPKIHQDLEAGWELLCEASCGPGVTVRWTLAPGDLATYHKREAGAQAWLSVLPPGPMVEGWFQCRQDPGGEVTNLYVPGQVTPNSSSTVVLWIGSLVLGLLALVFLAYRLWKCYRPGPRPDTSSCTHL


Legend:
[1] = molecular target: T1, human MAdCAM expressed on cells; assay: cell binding
[2] = molecular target: T2, mouse MAdCAM expressed on cells; assay: cell binding

Binder	binding result [1]	binding result [2]
MAdCAM Antibody Table 2 clone 37 (antibody, V domains shown, IgG format) VH: EVQLLESGGGLVQPGGSLRLSCAASGFTFSDYGMPWVRQAPGKGLEWVSAISGSGGSTYYADSVKGRFTISRDNSKNTLYLQMNSLRAEDTAVYYCARDGGWQPAAILDYWGQGTLVTVSS VL: DIQMTQSPSSLSASVGDRVTITCRASQGISNNLNWYQQKPGKAPKLLIYDASNLETGVPSRFSGSGSGTDFTLTISSLQPEDFATYYCQQSYSTPLTFGQGTKVEIK	binds	no binding
MAdCAM Antibody Table 2 clone 64 (antibody, V domains shown, IgG format) VH: EVQLLESGGGLVQPGGSLRLSCAASGFTFSNSDMNWVRQAPGKGLEWVAHIWNDGSQKYYADSVKGRFTISRDNSKNTLYLQMNSLRAEDTAVYYCARDRTDPGYSSAMDVWGQGTTVTVSS VL: DIQMTQSPSSLSASVGDRVTITCRASQDIRNYLGWYQQKPGKAPKLLIYDASSLETGVPSRFSGSGSGTDFTLTISSLQPEDFATYYCQQATSLPLTFGGGTKVEIK	binds	no binding
MAdCAM Antibody Table 2 clone 38 (antibody, V domains shown, IgG format) VH: QVQLVQSGAEVKKPGASVKVSCKASGYTFTDYFLHWVRQAPGQGLEWMGWMNPTSGNTGYAQKFQGRVTMTRDTSTSTVYMELSSLRSEDTAVYYCAREGEGSGFDYWGQGTLVTVSS VL: DIQMTQSPSSLSASVGDRVTITCRASQGINSWLAWYQQKPGKAPKLLIYDASNLETGVPSRFSGSGSGTDFTLTISSLQPEDFATYYCQQSYSTPLTFGGGTKVEIK	binds	no binding
MAdCAM Antibody Table 2 clone 61 (antibody, V domains shown, IgG format) VH: QVQLVQSGAEVKKPGASVKVSCKASGDTFTGYYIHWVRQAPGQGLEWMGWINPNSGGTNYAQKFQGRVTMTRDTSTSTVYMELSSLRSEDTAVYYCARSGLWLGSYYGMDVWGQGTLVTVSS VL: DIQMTQSPSSLSASVGDRVTITCRASQTISIWLAWYQQKPGKAPKLLIYDASTLQSGVPSRFSGSGSGTDFTLTISSLQPEDFATYYCQQYSSYPLTFGQGTKVEIK	binds	no binding
MAdCAM Antibody Table 2 clone 34 (antibody, V domains shown, IgG format) VH: QVQLVQSGAEVKKPGASVKVSCKASGYTFTGYYIHWVRQAPGQGLEWMGWMNPNSGNTGYAQKFQGRVTMTRDTSTSTVYMELSSLRSEDTAVYYCARDPGFLGYCSGGSCYDGWFDPWGQGTLVTVSS VL: DIQMTQSPSSLSASVGDRVTITCRASQSISSYLHWYQQKPGKAPKLLIYAASSLQSGVPSRFSGSGSGTDFTLTISSLQPEDFATYYCQQSYTAPYTFGQGTKLEIK	binds	no binding
MAdCAM Antibody Table 2 clone 43 (antibody, V domains shown, IgG format) VH: QVQLVQSGAEVKKPGASVKVSCKASGYTFTSYGISWVRQAPGQGLEWMGWMHPKSGDTGLTQKFQGRVTMTRDTSTSTVYMELSSLRSEDTAVYYCARDTPYYYYGMDVWGQGTTVTVSS VL: DIQMTQSPSSLSASVGDRVTITCRASQSISSWLAWYQQKPGKAPKLLIYAASSLQSGVPSRFSGSGSGTDFTLTISSLQPEDFATYYCQQSYSVPITFGQGTKVEIK	binds	no binding
MAdCAM Antibody Table 2 clone 56 (antibody, V domains shown, IgG format) VH: EVQLVESGGGLVKPGGSLRLSCAASGFTFSSYWMSWVRQAPGKGLEWVSAIGTGGGTYYAAPVKGRFTISRDDSKNTLYLQMNSLKTEDTAVYYCAREWLVPYYGMDVWGQGTTVTVSS VL: DIQMTQSPSSLSASVGDRVTITCRASQSISRWLAWYQQKPGKAPKLLIYGASNLQSGVPSRFSGSGSGTDFTLTISSLQPEDFATYYCQQSYSTPWTFGQGTKVEIK	binds	no binding
MAdCAM Antibody Table 2 clone 41 (antibody, V domains shown, IgG format) VH: QVQLVQSGAEVKKPGASVKVSCKASGYTFTSYYMHWVRQAPGQGLEWMGIINPSGGSTSYAQKFQGRVTMTRDTSTSTVYMELSSLRSEDTAVYYCARDTGYSYGRYYYYGMDVWGQGTLVTVSS VL: DIQMTQSPSSLSASVGDRVTITCRASQSIGRWLAWYQQKPGKAPKLLIYDASNLQSGVPSRFSGSGSGTDFTLTISSLQPEDFATYYCQQSYSIPITFGQGTKVEIK	binds	no binding
MAdCAM Antibody Table 2 clone 39 (antibody, V domains shown, IgG format) VH: QVQLVQSGAEVKKPGASVKVSCKASGYTFTSYYMHWVRQAPGQGLEWMAWMNPNSGNTGYAQKFQGRVTMTRDTSTSTVYMELSSLRSEDTAVYYCARDYDFWSGSLGYWGQGTLVTVSS VL: DIQMTQSPSSLSASVGDRVTITCRASQGISNYLAWYQQKPGKAPKLLIYAASSLQSGVPSRFSGSGSGTDFTLTISSLQPEDFATYYCQQSYSTPWTFGQGTKVEIK	binds	no binding
MAdCAM Antibody Table 2 clone 27 (antibody, V domains shown, IgG format) VH: EVQLLESGGGLVQPGGSLRLSCAASGFTFSSYQMSWVRQAPGKGLEWVSYISSSSTYTNYADSVKGRFTISRDNSKNTLYLQMNSLRAEDTAVYYCARANSSSWYDWYFDLWGQGTLVTVSS VL: not shown	binds	no binding
MAdCAM Antibody Table 2 clone 66 (antibody, V domains shown, IgG format) VH: QVQLVQSGAEVKKPGASVKVSCKASGYTFTGHYMHWVRQAPGQGLEWMGIINPSGGSTSYAQKFQGRVTMTRDTSTSTVYMELSSLRSEDTAVYYCARDGAWFGEEYYYGMDVWGQGTTVTVSS VL: DIQMTQSPSSLSASVGDRVTITCRASQGISNWLAWYQQKPGKAPKLLIYDASNLETGVPSRFSGSGSGTDFTLTISSLQPEDFATYYCQQYYSFPLYTFGQGTKVEIK	binds	no binding
MAdCAM Antibody Table 2 clone 54 (antibody, V domains shown, IgG format) VH: QVQLVQSGAEVKKPGSSVKVSCKASGGTLSRYGVSWVRQAPGQGLEWMGGIIPIFGTTNYAQKFQGRVTITADESTSTAYMELSSLRSEDTAVYYCARDRVYYDSSGYPTWYFDLWGRGTLVTVSS VL: EIVMTQSPATLSVSPGERATLSCRASQSVSSSYLAWYQQKPGQAPRLLIYGASTRATGIPARFSGSGSGTEFTLTISSLQSEDFAVYYCQQYGSSPITFGQGTKVEIK	binds	no binding

Second part, the binder after the results:

binding result [1]	binding result [2]	Binder
binds	no binding	MAdCAM Antibody Table 2 clone 59 (antibody, V domains shown, IgG format) VH: EVQLLESGGGLVQPGGSLRLSCAASGFSFSDYGMHWVRQAPGKGLEWVSAISGSGGSTYYADSVKGRFTISRDNSKNTLYLQMNSLRAEDTAVYYCARDGGWQPAAILDYWGQGTLVTVSS VL: DIQMTQSPSSLSASVGDRVTITCRASQGISNNLNWYQQKPGKAPKLLIYDASNLETGVPSRFSGSGSGTDFTLTISSLQPEDFATYYCQQSYSTPLTFGGGTKVEIK
binds	no binding	MAdCAM Antibody Table 2 clone 44 (antibody, V domains shown, IgG format) VH: not shown VL: DIQMTQSPSSLSASVGDRVTITCQASQDISNYLNWYQQKPGKAPKLLIYAASSLQSGVPSRFSGSGSGTDFTLTISSLQPEDFATYYCQQTYSGWTFGPGTKVDIK
binds	no binding	MAdCAM Antibody Table 2 clone 57 (antibody, V domains shown, IgG format) VH: EVQLLESGGGLVQPGGSLRLSCAASGFSVSSNYMSWVRQAPGKGLEWVAGISYDGSSKPYADSVKGRFTISRDNSKNTLYLQMNSLRAEDTAVYYCARSRGIAARPLQHWGQGTLVTVSS VL: not shown
binds	no binding	MAdCAM Antibody Table 2 clone 67 (antibody, V domains shown, IgG format) VH: QVQLVQSGAEVKKPGASVKVSCKASGYTFTGYYMHWVRQAPGQGLEWMGMIYPRDGSTSYAQKFQGRVTMTRDTSTSTVYMELSSLRSEDTAVYYCAMTGWGYGMDVWGKGTTVTVSS VL: DIQMTQSPSSLSASVGDRVTITCRASQGINNYLAWYQQKPGKAPKLLIYDASTLQSGVPSRFSGSGSGTDFTLTISSLQPEDFATYYCQQSYSAPPTFGQGTKLEIK
binds	no binding	MAdCAM Antibody Table 2 clone 53 (antibody, V domains shown, IgG format) VH: QVQLVQSGAEVKKPGASVKVSCKASGYTFTSYYMHWVRQAPGQGLEWMGWMNPNSGNTGYAQKFQGRVTMTRDTSTSTVYMELSSLRSEDTAVYYCAREGLGYCTNGVCWNYYGMDVWGQGTLVTVSS VL: DIQMTQSPSSLSASVGDRVTITCRASQGISSWLAWYQQKPGKAPKLLIYGASSLQSGVPSRFSGSGSGTDFTLTISSLQPEDFATYYCQQSYSTPYTFGQGTKVEIK
binds	no binding	MAdCAM Antibody Table 2 clone 42 (antibody, V domains shown, IgG format) VH: QVQLVQSGAEVKKPGASVKVSCKASGYTLTDYYMHWVRQAPGQGLEWMGIINPSGGSTSYAQKFQGRVTMTRDTSTSTVYMELSSLRSEDTAVYYCAREEYSSSSGYFDYWGQGTLVTVSS VL: DIQMTQSPSSLSASVGDRVTITCRASQGISSWLAWYQQKPGKAPKLLIYAASSLQSGVPSRFSGSGSGTDFTLTISSLQPEDFATYYCQQSYSTPLTFGQGTKVEIK
binds	no binding	MAdCAM Antibody Table 2 clone 62 (antibody, V domains shown, IgG format) VH: QVQLVQSGAEVKKPGASVKVSCKASGYTFTSYDINWVRQAPGQGLEWMGWINPNSGTTGYAQKFQGRVTMTRDTSTSTVYMELSSLRSEDTAVYYCARSPYYYYGMDVWGQGTTVTVSS VL: DIQMTQSPSSLSASVGDRVTITCRASHFISRWVAWYQQKPGKAPKLLIYAASTLQSGVPSRFSGSGSGTDFTLTISSLQPEDFATYYCQQSYSGISFGPGTKVDIK
